Measured values reported in patent US20040005688A1.

How the values were obtained:
[1] = target: Dsh, C-terminally tagged, expressed from pcDNA3.1 in NIH3T3 cells (Drosophila) (UniProt P51140); assay: cell-based or functional assay
[2] = target: Dvl3, mouse homolog of Dsh, C-terminally tagged, expressed from pcDNA3.1 in NIH3T3 cells (mouse) (UniProt Q61062); assay: cell-based or functional assay
Dvl3, mouse homolog of Dsh, C-terminally tagged, expressed from pcDNA3.1 in NIH3T3 cells (mouse), sequence (Q61062 whole entry): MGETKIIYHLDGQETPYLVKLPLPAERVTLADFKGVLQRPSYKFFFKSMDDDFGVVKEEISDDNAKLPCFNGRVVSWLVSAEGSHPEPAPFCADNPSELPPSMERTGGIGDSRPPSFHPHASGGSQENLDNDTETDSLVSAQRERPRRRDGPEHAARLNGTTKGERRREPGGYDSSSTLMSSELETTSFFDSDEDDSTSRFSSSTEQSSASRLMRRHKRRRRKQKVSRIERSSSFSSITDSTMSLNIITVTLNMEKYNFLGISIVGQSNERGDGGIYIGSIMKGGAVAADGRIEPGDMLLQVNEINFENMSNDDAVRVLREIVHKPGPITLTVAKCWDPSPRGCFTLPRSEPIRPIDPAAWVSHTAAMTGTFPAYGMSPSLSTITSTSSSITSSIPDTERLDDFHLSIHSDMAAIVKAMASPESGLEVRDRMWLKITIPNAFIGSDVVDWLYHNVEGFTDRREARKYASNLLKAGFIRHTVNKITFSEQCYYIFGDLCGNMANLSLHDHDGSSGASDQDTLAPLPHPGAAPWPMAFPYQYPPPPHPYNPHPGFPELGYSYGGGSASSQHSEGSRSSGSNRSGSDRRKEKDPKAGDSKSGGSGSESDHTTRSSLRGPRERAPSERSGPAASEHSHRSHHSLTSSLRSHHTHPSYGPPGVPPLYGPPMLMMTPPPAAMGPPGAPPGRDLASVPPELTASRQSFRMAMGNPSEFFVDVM

Dsh, C-terminally tagged, expressed from pcDNA3.1 in NIH3T3 cells (Drosophila), sequence (P51140 whole entry D276N): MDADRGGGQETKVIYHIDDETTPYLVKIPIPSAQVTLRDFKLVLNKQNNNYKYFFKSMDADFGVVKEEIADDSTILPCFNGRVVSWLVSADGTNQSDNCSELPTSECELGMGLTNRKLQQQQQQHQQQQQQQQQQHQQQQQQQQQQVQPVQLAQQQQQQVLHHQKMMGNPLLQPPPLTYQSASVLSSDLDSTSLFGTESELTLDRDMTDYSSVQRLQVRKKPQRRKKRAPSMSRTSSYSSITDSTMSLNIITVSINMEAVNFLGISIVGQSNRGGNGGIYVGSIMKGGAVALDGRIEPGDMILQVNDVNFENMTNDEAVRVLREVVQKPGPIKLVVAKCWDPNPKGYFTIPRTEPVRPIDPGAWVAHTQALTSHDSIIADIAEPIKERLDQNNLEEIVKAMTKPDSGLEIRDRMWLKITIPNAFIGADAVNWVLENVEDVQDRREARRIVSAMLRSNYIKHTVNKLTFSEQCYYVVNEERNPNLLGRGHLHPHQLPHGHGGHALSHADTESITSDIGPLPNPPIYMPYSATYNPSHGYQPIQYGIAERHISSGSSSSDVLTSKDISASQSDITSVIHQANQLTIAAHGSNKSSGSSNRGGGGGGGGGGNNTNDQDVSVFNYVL

activation of the LEF1 reporter (luciferase, NIH3T3 cells) [1]: 10 fold
activation of the LEF1 reporter (luciferase, NIH3T3 cells) [2]: 95 fold
Substance: DAKa, wild type, C-terminally tagged, expressed from pcDNA3.1 in NIH3T3 cells (enzyme)
